# Test results reported in patent US20110243959A1, “MODULATING NEURONAL PLASTICITY AND TREATMENT OF NEURONAL LOSS BY MODULATIONG WNT7A OR WNT7B MODULATION” (priority 2008, published 2011).
# B1: sFRP-1: Mature recombinant secreted frizzled-related protein 1 from R&D systems, used as local inhibitor of Wnt signaling (protein, UniProt Q8N474 32-314, looked up)
# Secreted frizzled-related …: SEYDYVSFQSDIGPYQSGRFYTKPPQCVDIPADLRLCHNVGYKKMVLPNLLEHETMAEVKQQASSWVPLLNKNCHAGTQVFLCSLFAPVCLDRPIYPCRWLCEAVRDSCEPVMQFFGFYWPEMLKCDKFPEGDVCIAMTPPNATEASKPQGTTVCPPCDNELKSEAIIEHLCASEFALRMKIKEVKKENGDKKIVPKKKKPLKLGPIKKKDLKKLVLYLKNGADCPCHQLDNLSHHFLIMGRKVKSQYLLTAIHKWDKKNKEFKNFMKKMKNHECPTFQSVFK
# Columns and labels:
# Wnt signaling [1] = assay: Local application into CA3 in mice housed under control conditions; assay type: in vivo
# Source text: (§1) For enriched environment (EE) experiments, male mice were housed in groups of 3-4 littermates in large (rat) cages equipped with 3 running wheels per cage, toys and hiding spaces. Control mice were male littermates (3-4), which were housed individually in small standard cages without special equipment. Unless stated otherwise, EE was started at 1 month of age, and lasted 20 days.
# Mature recombinant sFRP-1 was obtained from R&D systems and dissolved in PBS/0.1% BSA (vehicle: PBS/0.1% BSA) to a working concentration of 50 μg/ml. Wnt agonist (Calbiochem) was dissolved in a small volume of DMSO and then further diluted with PBS to a final concentration of 10 mM (DMSO<1:1000). PBS/DMSO solution alone was used as vehicle for control injections. Antibodies were from the following sources: Bassoon, anti-mouse Alexa Fluor 546 and 647, anti-goat Alexa Fluor 546 and 633, donkey anti-goat Alexa Fluor 568 (Molecular Probes); NeuN anti-mouse (CHEMICON); anti-human Wnt7a/b antibody (R&D, P56706). […] Reagents, with their working concentrations were: TTX (Laxotan, 1 μM, stock in acetate buffer), Bicuculine (SIGMA, 20 μM in water), CGP (SIGMA, 0.4 μM in water), Picrotoxin (SIGMA, 20 μM in water).
# Injection canulas were implanted unilaterally (left hemisphere) above the CA3 b-a region of Isofluorane-anesthetized mice using stereotactical guidance. Canulas were fixed with dental cement. Implantation coordinates from Bregma (implantation 0.5 mm above injection site as the needle surpassed canula by 0.5 mm): ante-posterior −2.06 mm, lateral 2.5 mm, dorso-ventral −1.4 mm. Animals were allowed to recover for 3 days after surgery before drug treatments started.
# (§2) Animals were injected under Isofluorane anesthesia with 300 nl of either drug (treated) or vehicle (control) through a small needle guided through the implanted canulas every 3-4 days for 12-21 days (depending on experiment). Canula positions were confirmed in all analyzed sections to be above Ca3b-a without harming the mossy fiber projection or CA3 pyramidal cell dendrites.
# (§3) Microscope images were processed and analysed using Metamorph 6.1, Imaris 4.2 (Bitplane AG) and ImageJ softwares. We defined LMTs as mossy fiber terminal regions of >2.5 μm diameter in CA3a-c, which were arranged either en-passant, or as side structures connected to the mossy fiber axon or another LMT by an axonal process (satellite). For the quantification of LMT sizes in 3D (volumes) at least three confocal 3D stacks were acquired in CA3b for each preparation (three mice per condition), and analyzed using Imaris 4.2 software.
# Individual LMT volumes contained in these cubes were measured using the Surpass/ Isosurface function of the software. Non-saturating imaging conditions were chosen for all size analyses. An intensity threshold of 300 was chosen to selectively analyze LMTs (excluding axons and other smaller objects). All identified objects were verified by eye inspection. Generally, the settings for the analysis were identical for all samples of all ages, but in some cases we verified the settings through internal calibration using the diameters and signal intensities of axons. After these measurements, LMTs were grouped according to their volumes. The volumes of all LMTs in one group were added up, and expressed as percentage of the total volume of all LMTs measured per cube. For the quantification of LMT sizes in 2D, MIPs of 3D stacks were created in ImageJ, and LMT surfaces (areas in μm^2) were measured. For all samples, LMTs were inspected by eye in 3D to be identified as individual LMTs and not fused with other LMTs. LMT numbers were determined in CA3b as follows: the sum of all mGFP-positive LMTs within a region of interest (ROI; a MIP) was divided by the number of mGFP-labeled axons within that ROI, and by the length along CA3 included in the ROI. LMT numbers were then normalized to 100 μm axon length. Wnt7a/b staining intensities were measured on single confocal planes. […]
# Wnt signaling [2] = assay: Application to organotypic slice cultures; assay type: cell-based; settings: organotypic slice cultures (not shown)
# Source text: Organotypic slice cultures were based on the Stoppini method (Stoppini et al., 1991), as described (De Paola et al., 2003).
# Immunocytochemistry preparations were imaged on an LSM510 confocal microscope (Zeiss) using a 40× (1.4) oil-immersion objective. Imaging of organotypic slice cultures was as described. Briefly, images were acquired with an LSM 510 (Zeiss), using a 40× (1.4) oil objective (Zeiss); image sizes were 2048×2048, and stepsizes were 0.4 μm. Where indicated, drugs were replaced every 3-4 days, together with fresh medium.
# as §3
# Wnt signaling [3] = assay: sFRP-1 applied locally into hippocampal CA3 through a canule in mice housed under enriched environment (EE) conditions; assay type: in vivo; settings: sFRP-1 present in CA3 during entire EE procedure, vs vehicle; no effect in dentate gyrus
# Source text: as §1
# Mature recombinant sFRP-1 was obtained from R&D systems and dissolved in PBS/0.1% BSA (vehicle: PBS/0.1% BSA) to a working concentration of 50 μg/ml. Wnt agonist (Calbiochem) was dissolved in a small volume of DMSO and then further diluted with PBS to a final concentration of 10 mM (DMSO<1:1000). […]
# as §2
# (§4) Microscope images were processed and analysed using Metamorph 6.1, Imaris 4.2 (Bitplane AG) and ImageJ softwares. […] For the quantification of LMT sizes in 3D (volumes) at least three confocal 3D stacks were acquired in CA3b for each preparation (three mice per condition), and analyzed using Imaris 4.2 software. […]
# Wnt signaling [4] = assay: sFRP-1 applied in Rab3a-/- mice housed under EE conditions; assay type: in vivo
# Source text: Transgenic mice expressing membrane-targeted GFP in only a few neurons (Thy1-mGFPs, L21 and L15) were as described (De Paola et al., 2003). Transgenic males were crossed over more than ten generations with non-transgenic F1 offsprings from C57BI6×BalbC crosses, so that the genetic background of the mice was 50% each of C57BI6 and BalbC. Rab3a knockout mice (B6; 129S-Rab3a^tm1Sud/J) were obtained from the Jackson Laboratory and backcrossed into Thy1-mGFP (L21) mice.
# For enriched environment (EE) experiments, male mice were housed in groups of 3-4 littermates in large (rat) cages equipped with 3 running wheels per cage, toys and hiding spaces. […]
# as §2, §4
# [5] = local into CA3, control housing
Molecule,AZ densities at LMTs (Wnt signaling [1]; [5]),stratum lucidum AZ numbers (Wnt signaling [1]; [5]),stratum lucidum LMT numbers (Wnt signaling [1]; [5]),LMT satellite numbers (Wnt signaling [2]),effect of the enriched housing conditions on AZ numbers (Wnt signaling [3]),effect of the enriched housing conditions on satellite numbers (Wnt signaling [3]),contents of AZs per LMT (Wnt signaling [1]; [5]),"fractions of LMTs with satellites (Wnt signaling [1]; local into CA3, control housing (not shown))",effect of EE on LMT complexities (Wnt signaling [4]),effect of EE on LMT numbers (Wnt signaling [4])
"COc1cccc(-c2cnc(N)nc2NCc2ccc3c(c2)OCO3)c1 [Wnt agonist, 2-amino-4-[3,4-(methylenedioxy)benzyl-amino]-5-(3-methoxyphenyl)pyrimidine, reference compound]",increased,increased,increased,increases,,,,,,
B1,,reduction,,,effectively suppresses the effect of the enriched housing conditions,effectively suppresses the effect of the enriched housing conditions,reduction,reduction,effectively suppressed the effect of EE,effectively suppressed the effect of EE
